“And” between values parts separate entries of the source, which are not always exact repeats. Equal entries are not always repeated.
Assays:
[1] = test system: human umbilical cord blood CD34+ cells; assay: Transwell migration of CD34+ cells toward SDF-1α; assay type: cell-based; details: 10 μg/mL; control and Compound X treated cells; 100 ng/mL SDF-1α; 4 hours
Experimental: CD34^+ cell migration toward 100 ng/mL SDF-1α in a Corning Transwell device (24 well format, 5 μm pore size, polycarbonate membrane) was studied with and without Compound X and in the presence or absence of either anti-CXCR4 antibody or the CXCR4 antagonist AMD3100.
The CD34^+ population of cells from human umbilical cord blood was obtained from Lonza, defrosted and expanded ex vivo with cytokine cocktail for 6 days according to standard procedures. Briefly, 10 wells of two 12 well dishes were seeded at a density of 8×10^4 cells per well in 2 mL of CellGenix serum free growth medium (SCGM). Cells were allowed to expand in a 37° C. incubator (5% CO2, 86% RH) for 6 days. During the expansion, the 10 wells of one of the two plates received treatments of Compound X to a final concentration of 5 ng/mL (10 μL from freshly prepared 1 μg/mL stock in SCGM) at 24 hours and 72 hours after initiation of the culture.
3 hours prior to the start of the migration assay, both control and Compound X expanded cells were pulsed with either 0, 5 ng/mL or 5 μg/mL Compound X. Migration assay was performed according to the method described (Tavor et al. 2005). Cells were centrifuged for 5 minutes at 1100 RPM and resuspended at a density of 2×10^6 cells/mL in CellGenix SCGM serum free medium containing 1% Fraction V BSA either in the presence or absence of 5 ng/mL or 5 μg/mL Compound X for 3 hours. The feeder tray (bottom) was prepared with 600 μL of serum free SCGM supplemented with 1% BSA in the presence or absence of SDF-1α. All treatments were conducted in triplicate. The wells of the migration chamber (top) received 100 μL of cells from the 2×10^6 cells/mL suspensions, preincubated with 5 ng/mL or 5 μg/mL Compound X or Control. All treatments were conducted in triplicates. The plates were placed in a 37° C. incubator (5% CO2, 86% RH) and cells were allowed to migrate for 4 hours. […]
The cells were thawed at room temperature. […] 150 μL of the resulting cell lysates were transferred to a new 96 well plate and the fluorescence was read on a […] SpectraMax M2 fluorimeter (ex 485, em 538). […]

peripheral blood cells = assay: FACS phenotype of peripheral blood cells after single subcutaneous injection; assay type: in vivo, C57Bl6 mice; details: for Phenotype Lin−/Sca-1+ / Phenotype Lin−/Sca-1−: 5 mg/kg, mononuclear cells
Experimental: C57Bl6 male mice, from 8 weeks to 4 month of age, from Harlan were used. […] 20 μl of blood was removed from each tube for WBC counts;
200 μl of blood was used for FACS analysis of cells phenotypes: briefly 50 μl of blood was transferred to a 15 ml polypropylene tube containing 1 ml ACK lysis buffer and the tubes left at room temperature for 6 minutes. 50 μl of a 1:50 dilution of Fc block (Pharmingen 01241A) along with 2 ul of anti-CD19FITC (Pharmingen 09654A) and 2 μl of anti-Gr-1PE (Pharmingen 01215A) was added and the tubes left at room temperature for 30 minutes protected from light. The cells were washed with 3 ml FACS buffer, resuspended in 300 μl FACS buffer and kept on ice, protected from light until acquired on the FACSCalibur.
For flow cytometry analysis the blood was stained with antibodies and a phenotype determined by FACS as described before. In addition to the whole blood FACS phenotyping, Ficolled blood was also stained to monitor the Lin−/Sca+ phenotype. The cells were washed with 3 ml FACS buffer, resuspended in 300 μl FACS buffer and kept on ice, protected from light until acquired on the FACSCalibur

[2] = test system: white blood cells in peripheral blood; assay: White blood cell count in peripheral blood after single subcutaneous injection; assay type: in vivo, C57Bl6 mice; details: s.c. 5 mg/kg; 1 hr; pooled blood
Experimental: (§1) C57Bl6 male mice, from 8 weeks to 4 month of age, from Harlan were used. Mice received subcutaneous injections of saline, Compound X (50 μg/kg) or Compound X (250 μg/kg). After 1 and 4 hours, mice were anesthetized and blood was collected through the orbital sinus with heparinized capillary tubes. 20 μl of blood was removed from each tube for WBC counts;
(§2) In this experiment, C57Bl6 mice received subcutaneous injections of PBS, Compound X (250 μg/kg) or AMD3100 (5 mg/kg). After 1 hr blood was collected through the orbital sinus with heparinized capillary tubes. Blood from each group was pooled, counted and mononuclear cells were isolated by density gradient separation. Cells were washed, counted and plated at 100,000 per dish (5 dishes/group) for CFU-GEMM and CFU-GM colonies. CFU-GEMM colonies were scored on day 14, while CFU-GM colonies on day 7 after plating in MC3434 (Stem cell Technology).

[3] = test system: hematopoietic stem cells (HSC) and their hematopoietic progenitors (HPC); assay: CFU-GM / CFU-GEMM colony assay of peripheral blood mononuclear cells after single subcutaneous injection; assay type: in vivo, C57Bl6 mice; details: s.c. 5 mg/kg
Experimental: as §1
Remaining blood from each group was pooled and mononuclear cells were isolated by density gradient separation. To enumerate HSC and HPC in peripheral blood cells were washed, counted plated in semi-solid Methylcellulose MC3434 (Stem cell technology) at 100,000 per dish (5 dishes/group) and placed in CO2 incubator at 37° C. Colony-forming unit-granulocyte erythroid macrophage megakaryocyte (CFU-GEMM) and Colony-forming unit-granulocyte macrophage (CFU-GM) were detected under inverted microscope 7 and 10 days after.
as §2

HSC and HPC = assay: CFU-GM / CFU-GEMM colony assay after 4 daily injections of G-CSF and Compound X; assay type: in vivo, mice; details: for CFU-GEMM numbers, MEAN / CFU-GM numbers, MEAN / CFU-GEMM numbers / CFU-GM numbers: 5 μg/mouse each agent s.c. daily for 4 days; for CFU-GEMM numbers / CFU-GM numbers: individual dishes; for Fold increase in number of CFU-GM / Fold increase in number of CFU-Mix (CFU-GEMM): multiple injections, 5 μg/mouse each agent
Experimental: Compound X and Neupogen (rG-CSF Amgen, lot# P043601) were diluted in PBS. Mice received subcutaneous injections of PBS, Compound X (5 μg/mouse), G-CSF (5 μg/mouse) or Compound X (5 μg/mouse)+G-CSF (5 μg/mouse) for four consecutive days. […] Mononuclear cells were isolated by density gradient separation from pooled blood. […] Blood was also collected and processed on day 8 for colony assay. Results are shown in Tables 10, 11, and 12 and in FIG. 5.

[4] = test system: white blood cells in peripheral blood; assay: White blood cell count after 4 daily injections of G-CSF and Compound X; assay type: in vivo, mice; details: 5 μg/mouse each agent s.c. daily for 4 days, pooled blood
Experimental: Compound X and Neupogen (rG-CSF Amgen, lot# P043601) were diluted in PBS. Mice received subcutaneous injections of PBS, Compound X (5 μg/mouse), G-CSF (5 μg/mouse) or Compound X (5 μg/mouse)+G-CSF (5 μg/mouse) for four consecutive days. On the last day of injections, 1 hour post injections, blood was collected through the orbital sinus with heparinized capillary tubes. Blood was pooled from 3 mice/group and white blood cell counts were obtained. Mononuclear cells were isolated by density gradient separation from pooled blood. Cells were washed, counted and plated at 100,000 per dish (5 dishes/group) for CFU-mix and CFU-GM colonies. Blood was also collected and processed on day 8 for colony assay. Results are shown in Tables 10, 11, and 12 and in FIG. 5.

[5] = 1 hour, individual dishes, 5 mg/kg

## c1cc(CN2CCCNCCNCCCNCC2)ccc1CN1CCCNCCNCCCNCC1 [AMD3100, reference compound]
[1]
  CD34+ cell Transwell migration toward SDF-1α: strong inhibition
Peripheral blood cells; 1-hour
  Phenotype Lin−/Sca-1+: 0.6%
  Phenotype Lin−/Sca-1−: 2.8%
Peripheral blood cells; 30-min
  Phenotype Lin−/Sca-1+: 0.5%
  Phenotype Lin−/Sca-1−: 2.1%
Peripheral blood cells; s.c. 5 mg/kg, 30 min and 1 hr
  mobilization of lineage negative progenitors: up to 3 times
[2]
  White blood cell count: Cell Count: 1.14e+07 mL⁻¹
[3]; 1 hour
  CFU-GEMM, MEAN: 6.2 per 100,000 cells
  CFU-GM (day 7), MEAN: 20.6 per 100,000 cells
[3]; [5]
  CFU-GEMM: 5 per 100,000 cells and 4 per 100,000 cells (2×) and 11 per 100,000 cells and 7 per 100,000 cells
  CFU-GM (day 7): 19 per 100,000 cells (3×) and 26 per 100,000 cells and 20 per 100,000 cells
[3]; 1 hr
  number of circulating committed precursors of granulocytes and macrophages—CFU-GM: substantial increase
[3]; 1 hr, vs PBS
  increase of CFU-GEMM number in peripheral blood: 6.2 times

B1: G-CSF: Neupogen (rG-CSF Amgen), most common mobilizing agent for clinical uses (protein, chains of the INN, looked up)
chain: MTPLGPASSLPQSFLLKCLEQVRKIQGDGAALQEKLCATYKLCHPEELVLLGHSLGIPWAPLSSCPSQALQLAGCLSQLHSGLFLYQGLLQALEGISPELGPTLDTLQLDVADFATTIWQQMEELGMAPALQPTQGAMPAFASAFQRRAGGVLVASHLQSFLEVSYRVLRHLAQP
HSC and HPC; Day 4
  CFU-GEMM numbers, MEAN: 17.6 per 100000 mononuclear cells
  CFU-GM numbers, MEAN: 60.6 per 100000 mononuclear cells
  CFU-GEMM numbers: 20 per 100000 mononuclear cells and 12 per 100000 mononuclear cells (2×) and 15 per 100000 mononuclear cells and 29 per 100000 mononuclear cells
  CFU-GM numbers: 62 per 100000 mononuclear cells and 58 per 100000 mononuclear cells and 63 per 100000 mononuclear cells and 52 per 100000 mononuclear cells and 68 per 100000 mononuclear cells
  Fold increase in number of CFU-GM: 12 Fold
HSC and HPC; Day 8
  CFU-GEMM numbers, MEAN: 4 per 100000 mononuclear cells
  CFU-GM numbers, MEAN: 15.0 per 100000 mononuclear cells
  CFU-GEMM numbers: 5 per 100000 mononuclear cells and 4 per 100000 mononuclear cells (3×) and 3 per 100000 mononuclear cells
  CFU-GM numbers: 12 per 100000 mononuclear cells and 15 per 100000 mononuclear cells and 11 per 100000 mononuclear cells and 21 per 100000 mononuclear cells and 16 per 100000 mononuclear cells
  Fold increase in number of CFU-GM: 6 Fold
  Fold increase in number of CFU-Mix (CFU-GEMM): 5 Fold
HSC and HPC; Day 4, 1 hr after the last injection
  Fold increase in number of CFU-Mix (CFU-GEMM): 12.5 Fold
[4]; Day 4, 1 hour post injection
  White Blood Cell counts: Cell Count: 14.6 ×10^6
[4]; Day 8
  White Blood Cell counts: Cell Count: 5.0 ×10^6

— US20140088006A1, “Stem Cell Mobilization and Tissue Repair and Regeneration” (Wellstat Therapeutics Corporation, priority 2011, published 2014)
